Experimental findings from PMC4158700 are described below.

Assay [1] addresses factor XIa with Arg184 replaced with Gly (fXIa-Gly184) (human) (UniProt P03951). Nature of the assay: inhibition of chromogenic substrate.
In assay [2] the target is recombinant wild type factor XIa (fXIaWT) (human) (UniProt P03951). Nature of the assay: inhibition of chromogenic substrate.
Assay [3] concerns the target factor XIa with Arg184 replaced with Gly (fXIa-Gly184) (human) (UniProt P03951). Nature of the assay: numerical fitting of full progress curves of fIX cleavage.
Assay [4] deals with factor XIa with Ile183, Arg184 and Asp185 replaced with alanine (fXIa-Ala183-185) (human) (UniProt P03951). Described as above.
Assay [5] has as its target factor XIa with Arg184 replaced with Gly (fXIa-Gly184) (human) (UniProt P03951).
The target of assay [6] is factor XIa with Ile183, Arg184 and Asp185 replaced with alanine (fXIa-Ala183-185) (human) (UniProt P03951).
Assay [7] concerns the target recombinant factor XI zymogen with Arg184 replaced with Gly (fXI-Gly184) (human). The assay can be described thus: non-reducing SDS-PAGE.
Assay [8] has as its target plasma fXIa with the active site irreversibly blocked by FPR-CMK (UniProt P03951). Nature of the assay: SPR.
For assay [9], the target named is recombinant wild type factor XI zymogen (fXIWT) (human). Nature of the assay: non-reducing SDS-PAGE.

As a reminder, the Ki is a dissociation constant, usually derived from enzyme kinetics or from competition with a known ligand. As to “factor IXaβ (fIXaβ), fIX cleaved at Arg145-Ala146 and Arg180-Val181 (enzyme)”, the Ki in [1] is 190 nM; in [2], 90 nM; in assay [3] it was 500 nM; in [4], 290 nM.
Turning to “factor IXα (fIXα), fIX cleaved at the Arg145-Ala146 bond (natural protein)”, the values for the Km2 for cleavage after Arg180 (KinTek fit of progress curves) in assay [5] and in assay [6] were 0.2 µM and 3 µM, respectively. Moreover, the Ki1 (k-3/k3, fIXα released after the cleavage at Arg145) is 0.4 µM in assay [3] and 6 µM in [4].
The stoichiometry N is a count of units in the complex or per binding partner. “recombinant factor XI zymogen with Arg184 replaced with Gly (fXI-Gly184) (natural protein)”: the stoichiometry N in assay [7] turned out to be 2.
The Kd is the equilibrium constant for the complex coming apart. Low readings indicate higher affinity, high ones lower affinity. The substance “recombinant wild type factor IX (fIXWT) (from UniProt P00740 47-461) (natural protein)” registered a dissociation constant Kd in assay [8] of 350 nM.
With “recombinant wild type factor XI zymogen (fXIWT) (natural protein)”, in assay [9], the stoichiometry N turned out to be 2.
